One assay has as its target FcRn (UniProt P55899). In words: SPR. (In general: In SPR one partner is held on a chip, and binding of the other changes the refractive index at the surface.)
Another assay concerns the target FcγRI (UniProt P12314). In words: SPR.

pKd: −log10 of the molar value. A value given as a limit tells only on which side of the number the result lay.

UniProt P12314, sequence (P12314 16-374): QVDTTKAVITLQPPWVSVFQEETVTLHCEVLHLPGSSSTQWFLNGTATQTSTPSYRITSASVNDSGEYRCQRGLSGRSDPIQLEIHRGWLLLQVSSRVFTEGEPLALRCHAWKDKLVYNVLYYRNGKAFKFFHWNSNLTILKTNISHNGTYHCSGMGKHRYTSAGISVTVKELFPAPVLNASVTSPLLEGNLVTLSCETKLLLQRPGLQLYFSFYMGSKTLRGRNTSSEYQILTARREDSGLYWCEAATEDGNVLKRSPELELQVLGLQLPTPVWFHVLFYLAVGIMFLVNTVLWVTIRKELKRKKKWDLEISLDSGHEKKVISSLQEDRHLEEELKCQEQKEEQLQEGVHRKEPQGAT
UniProt P55899, sequence (P55899 whole entry, looked up, tested part not stated): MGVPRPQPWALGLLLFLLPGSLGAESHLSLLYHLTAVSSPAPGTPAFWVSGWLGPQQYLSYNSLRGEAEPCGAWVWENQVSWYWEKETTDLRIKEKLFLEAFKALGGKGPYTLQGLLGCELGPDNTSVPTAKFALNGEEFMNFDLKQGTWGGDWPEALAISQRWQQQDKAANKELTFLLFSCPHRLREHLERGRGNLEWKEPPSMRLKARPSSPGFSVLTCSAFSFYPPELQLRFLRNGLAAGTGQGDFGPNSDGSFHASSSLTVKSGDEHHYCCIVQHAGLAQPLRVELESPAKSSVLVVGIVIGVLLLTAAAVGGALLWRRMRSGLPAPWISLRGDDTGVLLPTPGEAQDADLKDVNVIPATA

In general, pKd refers to the negative decadic logarithm of the Kd, by convention in mol/L. High values mean a low Kd, low ones a high Kd. For CLN-049 (bispecific antibody), the pKd in the assay with FcRn and with FcγRI was < 3.00 throughout.
